{"source": "patent US20140315822A1", "key": {"[1]": {"molecular_target": "T1, PDZ domain of the human MAST2 protein (human), Q6P0Q8", "T1 chain": "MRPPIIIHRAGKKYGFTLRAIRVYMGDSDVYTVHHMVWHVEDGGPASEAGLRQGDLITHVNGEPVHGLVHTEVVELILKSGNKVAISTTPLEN", "experiment": "ITC, 298 K, MAST2-PDZ titrated with peptide"}, "[2]": {"molecular_target": "T1, PDZ domain of the human MAST2 protein …"}}, "data": [{"binder": "SWEVHGQQTRL (modifications not checked)", "note": "[454 (Neurovita 3)]", "values": [{"measurement": "TΔS (entropy)", "setting": "[1]", "result": 1110}, {"measurement": "n (stoechiometry)", "setting": "[1]", "result": 1.01}, {"measurement": "ΔH (enthalpy)", "setting": "[1]", "result": -8720}, {"measurement": "gain of affinity as compared to Neurovita1", "setting": "[2]", "result": 20, "unit": "fold"}]}]}
